Target: gp120 of HIV strain 97ZA009 (clade C, R5) (HIV-1 strain 97ZA009)
Assay: cell-based or functional assay

B1: scFv JL427 (scFv)
scFv: QSVLTQPPSVSGAPGQRVTISCSGSSSNFGLNYVYWYQHFPGTAPKLLIYRNDQRPLGVPARFSGSKSGTSASLAISGLRSEDEADYYCQSYDNSLSGWVFGGGTQLTVLGSSGGGGSGGGGSGGSALQVQLQQSGGGLVQPGRSLRLSCAASGFTFSSYGMHWVRQAPGKGLEWVSYIGRSGSHTNYADSVKGRFTISRDNSKNTLYLQINSLRAEDTAVYYCARGLPNYGMDIWGQGTTVTVSSGSASAPTLFPAAAHHHHHHGAAEQKLISEEDLNGAA
  HIV neutralization IC50, ng/mL (97ZA009, PBMC): 300 ng/mL
